Experimental findings from paper PMC11102866, “Nucleosome-bound NR5A2 structure reveals pioneer factor mechanism by DNA minor groove anchor competition” are described below.

Data set [1] concerns the target T1, NR5A2 D159A (Homo sapiens, UniProt O00482 1-541, D159A). Description: EMSA; similar to wild type; EMSA: 20 mM Tris-HCl pH 7.5, 120 mM NaCl, 1 mM MgCl2, 10 uM ZnCl2, 1 mM DTT, 100 ug/ml BSA, room temperature, 30 min; 50 nM DNA or nucleosome. The settings on record: protein: recombinant; tags: N-terminal His6-TEV, His6 removed with TEV protease.
Data set [2] has as its target NR5A2 wild type (Homo sapiens, UniProt O00482 1-541). Description: EMSA; EMSA: 20 mM Tris-HCl pH 7.5, 120 mM NaCl, 1 mM MgCl2, 10 uM ZnCl2, 1 mM DTT, 100 ug/ml BSA, room temperature, 30 min; 50 nM DNA or nucleosome. The settings on record: protein: recombinant; tags: N-terminal His6-TEV, His6 removed with TEV protease.
Data set [3] concerns the target T1, NR5A2 D159A. The data set can be described thus: EMSA; slightly less than wild type, not significant; EMSA: 20 mM Tris-HCl pH 7.5, 120 mM NaCl, 1 mM MgCl2, 10 uM ZnCl2, 1 mM DTT, 100 ug/ml BSA, room temperature, 30 min; 50 nM DNA or nucleosome. The settings on record: protein: recombinant; tags: N-terminal His6-TEV, His6 removed with TEV protease; blunt.

B1: 149 bp endogenous mouse DNA (dsDNA)
DNA 1: GGACTGGGACTTCTAAAACAAGACCTTAGTTAGGTGTGGTGCTGCATGCCTTTAATCTCAGCAGTCTGGAGGCAGAGACAGGGAGGTCTCTATGAGTTCAAGGCCAGCCTAATCTACACAGTGAGTTCCAGGACAGTCAGGGCTATAGA
DNA 2: TCTATAGCCCTGACTGTCCTGGAACTCACTGTGTAGATTAGGCTGGCCTTGAACTCATAGAGACCTCCCTGTCTCTGCCTCCAGACTGCTGAGATTAAAGGCATGCAGCACCACACCTAACTAAGGTCTTGTTTTAGAAGTCCCAGTCC
For B1, the binding result in data set [1] and in data set [2] was “binds” each time.

B2: 25 bp DNA with Nr5a2 consensus motif (dsDNA)
DNA 1: GAGAGAGTCAAGGCCATGGCTCACT
DNA 2: AGTGAGCCATGGCCTTGACTCTCTC
As to B2, the binding result in data set [3] was “binds”.
